Experimental data published in FireProtDB (doi:10.1110/ps.051838206).
Several values for one entry are separate records, joined by “and”; a condition that tells them apart may be missing. Equal entries are not always repeated.

B1: Azurin, P00282 (parent)
chain: MLRKLAAVSLLSLLSAPLLAAECSVDIQGNDQMQFNTNAITVDKSCKQFTVNLSHPGNLPKNVMGHNWVLSTAADMQGVVTDGMASGLDKDYLKPDDSRVIAHTKLIGSGEKDSVTFDVSKLKEGEQYMFFCTFPGHSALMKGTLTLK

Variants of: B1
Conditions: Pseudomonas aeruginosa (strain ATCC 15692 / DSM 22644 / CIP 104116 / JCM 14847 / LMG 12228 / 1C / PRS 101 / PAO1), pH 7, 25 °C, GdnHCl, Tris-HCl 100 mM, reversible: Yes, structure 5AZU, whole UniProt chain shown

Variant | ddG of mutation (higher = less stable) (CD) | ddG of mutation (higher = less stable) (Fluorescence) | unfolding free energy (CD) | unfolding free energy (Fluorescence)
I40T | 2.39 kcal/mol and 1.91 kcal/mol | 2.39 kcal/mol and 1.91 kcal/mol | – | –
V42A | 1.43 kcal/mol | – | 4.54 kcal/mol | –
L70T | 2.34 kcal/mol and 2.15 kcal/mol | 2.15 kcal/mol | 3.63 kcal/mol and 10.8 kcal/mol | 10.8 kcal/mol
L70V | 0.36 kcal/mol and 0.24 kcal/mol | 0.36 kcal/mol and 0.24 kcal/mol | 5.62 kcal/mol and 12.7 kcal/mol | 5.62 kcal/mol and 12.7 kcal/mol
I101A | 2.39 kcal/mol | 2.39 kcal/mol | 3.59 kcal/mol | 3.59 kcal/mol
I101T | 2.51 kcal/mol and 3.35 kcal/mol | 2.51 kcal/mol and 3.35 kcal/mol | 3.47 kcal/mol and 9.56 kcal/mol | 3.47 kcal/mol and 9.56 kcal/mol
I40V | – | – | 5.59 kcal/mol and 12.9 kcal/mol | 5.59 kcal/mol and 12.9 kcal/mol
V42T | – | – | 5.02 kcal/mol and 8.6 kcal/mol | 5.02 kcal/mol and 8.6 kcal/mol
V51T | – | – | 4.9 kcal/mol and 8.84 kcal/mol | 4.9 kcal/mol and 8.84 kcal/mol
I101V | – | – | 5.9 kcal/mol and 12.7 kcal/mol | 5.9 kcal/mol and 12.7 kcal/mol
V115T | – | – | 6.93 kcal/mol and 12.8 kcal/mol | 6.93 kcal/mol and 12.8 kcal/mol
I40A | – | 1.55 kcal/mol | – | 4.42 kcal/mol
